± gives the standard deviation of the averaged measurements.
Test system: ATP
Assay: switch fluorescence ratio, 500 uM ATP over buffer (Cy3 cluster intensity, sum of 5 cycles each) (fold (ratio)); higher = stronger signal-on switching upon ATP binding; sequences stand for … in TCGTCGGCAGCGTCAGATGTGTATAAGAGACAGTTTTTTTTTTTTTTTTTTTTTTTTT…TC
Settings: aptamer strand: ATP DNA aptamer (quencher-CACCTGGGGGAGTATTGCGGAGGAAGG + anchor), 100 nM annealed; ATP concentration: 500 uM
How it was run: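 After annealing to 100 nM quencher-labelled ATP aptamer, Cy3-labelled switching-strand clusters on a modified Illumina MiSeq flow-cell were imaged in selection buffer. A second image followed after 15 min with 500 uM ATP at 22 °C, and five such buffer/ATP cycles were done, each separated by NaOH stripping and re-annealing. The fluorescence ratio, averaged per switch-domain sequence, is summed target-cycle over summed buffer-cycle Cy3 intensity per cluster, with clusters outside 100-1000 RFU excluded.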
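Further: ATP exposure 15 min at 22 °C before imaging.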

Sequence	switch fluorescence ratio
CAGTGATTAT	1.01 ± 0.018
CTACTGGGGA	1.05 ± 0.036
GAATTATGGC	1.01 ± 0.085
GGGGATACGT	1 ± 0.021
TATGGTGTGG	0.967 ± 0.024
CCATGGGGTG	1.25 ± 0.037
TTTCTTTTGG	1.1 ± 0.09
AGGGGAAGGT	0.984 ± 0.021
GCATGCGCTG	0.982 ± 0.015
TGATGGATTG	0.99 ± 0.028
ATTTGGAAGT	1.02 ± 0.018
TAGGATCCC	0.981 ± 0.026
AAGGCATGCG	1.037 ± 0.005
TTGCGACGGT	1.02 ± 0.023
CCAGAATTAA	0.976 ± 0.011
AAGGGGGCCG	1.06 ± 0.092
ATAAGGGAGT	0.9909 ± 0.0033
TGCTTCTAAT	1.02 ± 0.021
GGGTTATAGG	0.978 ± 0.025
CAAATACCTG	1.04 ± 0.019
CAAAGCATCT	1.09 ± 0.011
CGGGTGGCTG	0.995 ± 0.035
CAATGTTGAG	1 ± 0.032
ATTTGTTTTA	1.08 ± 0.17
AGCTACTTTT	1.022 ± 0.0035

Sequence	switch fluorescence ratio
GCTTAAAGGC	1.01 ± 0.03
TTCGCGTAGA	1.01 ± 0.014
AGGGCTCGGG	1.012 ± 0.0075
CGTTTGGAAC	1.01 ± 0.055
CGCGCGGTTT	1.02 ± 0.041
TGGGACGATC	1.05 ± 0.028
AGTATAGACC	0.983 ± 0.01
TCCTGATGTT	0.982 ± 0.046
TGTTGAATTT	0.958 ± 0.016
GGTACTCGTA	1.01 ± 0.039
GGAATCGGAA	1.02 ± 0.034
GGTTCACGGT	0.994 ± 0.026
GGTTGCAGTC	0.946 ± 0.025
GTTTTTGAGT	1.016 ± 0.0031
AGGATAAACT	1 ± 0.013
TCCAGCTGTG	0.9916 ± 0.0022
TGGTGAGGGT	0.999 ± 0.025
TTGTTGTACT	1.02 ± 0.014
AGCCTTTTTG	0.992 ± 0.042
TTGTGGGGCT	0.9974 ± 0.009
TCAGGGGATT	1.02 ± 0.031
AAAAAATCGG	1 ± 0.019
TTTGAGCAGA	0.97 ± 0.02
CGATAGTATT	0.9854 ± 0.0063
GGGGTATCTT	1.04 ± 0.017

Sequence	switch fluorescence ratio
TACAGGACTC	1.09 ± 0.012
TTAAAATTAT	0.996 ± 0.023
ACGTTTTAAG	1.01 ± 0.032
TTTTATGTGT	0.992 ± 0.035
TGTTTGAGGC	0.997 ± 0.044
TGTTTTGGGC	0.992 ± 0.033
TGCGGGGGG	0.9855 ± 0.0037
TGGGGGTATG	1 ± 0.02
TACGAATGGG	1.01 ± 0.037
TCTTTTAAAG	0.988 ± 0.035
ATCGGGGTCA	1.01 ± 0.027
ACCTGTATA	1.054 ± 0.0037
TTCGGCGGGC	1 ± 0.027
GGGTCAGGTG	3.44 ± 0.48
CCTGGGGGGT	1.06 ± 0.13
GCGGGAACGG	0.992 ± 0.017
CCGATGATTG	1.08 ± 0.014
TGGGTCGGGT	0.9817 ± 0.0088
TTTAGATTGT	1.01 ± 0.029
TTCTTAGTGT	0.97 ± 0.027
ACCGGATATA	1.006 ± 0.0081
AAAGTTTCGC	1 ± 0.019
TTATAATTTG	1.02 ± 0.032
TACGTAACAG	1.24 ± 0.064
TGGTTGGGAT	1 ± 0.04

Sequence	switch fluorescence ratio
GGTTATATGT	1.02 ± 0.021
AGTTACAGTC	1.05 ± 0.073
AGCTTGGGCG	0.995 ± 0.11
CTCTTGTTTT	0.988 ± 0.018
GGGTATTGAG	0.991 ± 0.012
GGTGTTGATC	1.03 ± 0.025
TGACCCTTCT	1.14 ± 0.05
GGTTAGGCGG	0.954 ± 0.015
TGGCCGTATT	1 ± 0.056
TCGAGGGGTT	0.993 ± 0.011
ACGGAAAAAG	1.01 ± 0.026
CTGGCATGGG	0.979 ± 0.014
ACTCAGGTGT	3.23 ± 0.13
AATGCACAGA	1.05 ± 0.045
AATATAAAGC	1.012 ± 0.0028
AGTTAGGTTA	1 ± 0.014
TCCGAAGGAA	1.11 ± 0.042
ACGGACCCGG	1.36 ± 0.42
CAATGAAATC	1.02 ± 0.027
TTTTGATGAT	1.02 ± 0.013
ATCGGGGTC	0.983 ± 0.027
GCAGATCGTG	1.02 ± 0.026
AAGTTGATTC	0.979 ± 0.016
GGGGGGGGAC	1.02 ± 0.071
GATCCGAGGG	0.974 ± 0.018

Source: the supplement of paper PMC10126150
